B1: 771 (protein)
chain: MALPVTALLLPLALLLHAARPEIVMTQSPATLSLSPGERATLSCRASQDISKYLNWYQQKPGQAPRLLIYHTSRLHSGIPARFSGSGSGTDYTLTISSLQPEDFAVYFCQQGNTLPYTFGQGTKLEIKGGGGSGGGGSGGGGSQVQLQESGPGLVKPSETLSLTCTVSGVSLPDYGVSWIRQPPGKGLEWIGVIWGSETTYYQSSLKSRVTISKDNSKNQVSLKLSSVTAADTAVYYCAKHYYYGGSYAMDYWGQGTLVTVSSTTTPAPRPPTPAPTIASQPLSLRPEACRPAAGGAVHTRGLDFACDIYIWAPLAGTCGVLLLSLVITLYCKRGRKKLLYIFKQPFMRPVQTTQEEDGCSCRFPEEEEGGCELRVKFSRSADAPAYQQGQNQLYNELNLGRREEYDVLDKRRGRDPEMGGKPRRKNPQEGLYNELQKDKMAEAYSEIGMKGERRRGKGHDGLYQGLSTATKDTYDALHMQALPPRMHKRSHTGERPFQCNQCGASFTQKGNLLRHIKLHTGEKPFKCHLCNTASAEARHIKAEMGGKPIPNPLLGLDST
B2: 765 (protein)
chain: MALPVTALLLPLALLLHAARPRSSLALSLTADQMVSALLDAEPPILYSEYDPTRPFSEASMMGLLTNLADRELVHMINWAKRVPGFVDLALHDQVHLLECAWMEILMIGLVWRSMEHPGKLLFAPNLLLDRNQGKCVEGGVEIFDMLLATSSRFRMMNLQGEEFVCLKSIILLNSGVYTFLSSTLKSLEEKDHIHRVLDKITDTLIHLMAKAGLTLQQQHQRLAQLLLILSHIRHMSSKRMEHLYSMKCKNVVPLSDLLLEMLDAHRLGTGAEDPRPSRKRRSLGDVGEIVMTQSPATLSLSPGERATLSCRASQDISKYLNWYQQKPGQAPRLLIYHTSRLHSGIPARFSGSGSGTDYTLTISSLQPEDFAVYFCQQGNTLPYTFGQGTKLEIKGGGGSGGGGSGGGGSQVQLQESGPGLVKPSETLSLTCTVSGVSLPDYGVSWIRQPPGKGLEWIGVIWGSETTYYQSSLKSRVTISKDNSKNQVSLKLSSVTAADTAVYYCAKHYYYGGSYAMDYWGQGTLVTVSSTTTPAPRPPTPAPTIASQPLSLRPEACRPAAGGAVHTRGLDFACDIYIWAPLAGTCGVLLLSLVITLYCKRGRKKLLYIFKQPFMRPVQTTQEEDGCSCRFPEEEEGGCELRVKFSRSADAPAYQQGQNQLYNELNLGRREEYDVLDKRRGRDPEMGGKPRRKNPQEGLYNELQKDKMAEAYSEIGMKGERRRGKGHDGLYQGLSTATKDTYDALHMQALPPR
B3: construct 774: signal peptide, the HilD tag, a furin cleavage site, and CAR19 (protein)
chain: MALPVTALLLPLALLLHAARPHKRSHTGERPFQCNQCGASFTQKGNLLRHIKLHTGEKPFKCHLCNTASAEARHIKAEMGGTGAEDPRPSRKRRSLGDVGEIVMTQSPATLSLSPGERATLSCRASQDISKYLNWYQQKPGQAPRLLIYHTSRLHSGIPARFSGSGSGTDYTLTISSLQPEDFAVYFCQQGNTLPYTFGQGTKLEIKGGGGSGGGGSGGGGSQVQLQESGPGLVKPSETLSLTCTVSGVSLPDYGVSWIRQPPGKGLEWIGVIWGSETTYYQSSLKSRVTISKDNSKNQVSLKLSSVTAADTAVYYCAKHYYYGGSYAMDYWGQGTLVTVSSTTTPAPRPPTPAPTIASQPLSLRPEACRPAAGGAVHTRGLDFACDIYIWAPLAGTCGVLLLSLVITLYCKRGRKKLLYIFKQPFMRPVQTTQEEDGCSCRFPEEEEGGCELRVKFSRSADAPAYQQGQNQLYNELNLGRREEYDVLDKRRGRDPEMGGKPRRKNPQEGLYNELQKDKMAEAYSEIGMKGERRRGKGHDGLYQGLSTATKDTYDALHMQALPPR
B4: 774 (protein)
chain: MALPVTALLLPLALLLHAARPHKRSHTGERPFQCNQCGASFTQKGNLLRHIKLHTGEKPFKCHLCNTASAEARHIKAEMGGTGAEDPRPSRKRRSLGDVGEIVMTQSPATLSLSPGERATLSCRASQDISKYLNWYQQKPGQAPRLLIYHTSRLHSGIPARFSGSGSGTDYTLTISSLQPEDFAVYFCQQGNTLPYTFGQGTKLEIKGGGGSGGGGSGGGGSQVQLQESGPGLVKPSETLSLTCTVSGVSLPDYGVSWIRQPPGKGLEWIGVIWGSETTYYQSSLKSRVTISKDNSKNQVSLKLSSVTAADTAVYYCAKHYYYGGSYAMDYWGQGTLVTVSSTTTPAPRPPTPAPTIASQPLSLRPEACRPAAGGAVHTRGLDFACDIYIWAPLAGTCGVLLLSLVITLYCKRGRKKLLYIFKQPFMRPVQTTQEEDGCSCRFPEEEEGGCELRVKFSRSADAPAYQQGQNQLYNELNLGRREEYDVLDKRRGRDPEMGGKPRRKNPQEGLYNELQKDKMAEAYSEIGMKGERRRGKGHDGLYQGLSTATKDTYDALHMQALPPR
B5: construct 773: modified signal peptide, the HilD tag, a furin cleavage site, and CAR19 (protein)
chain: MALPVTALLLPLALLLHAARPRSSLAHKRSHTGERPFQCNQCGASFTQKGNLLRHIKLHTGEKPFKCHLCNTASAEARHIKAEMGGTGAEDPRPSRKRRSLGDVGEIVMTQSPATLSLSPGERATLSCRASQDISKYLNWYQQKPGQAPRLLIYHTSRLHSGIPARFSGSGSGTDYTLTISSLQPEDFAVYFCQQGNTLPYTFGQGTKLEIKGGGGSGGGGSGGGGSQVQLQESGPGLVKPSETLSLTCTVSGVSLPDYGVSWIRQPPGKGLEWIGVIWGSETTYYQSSLKSRVTISKDNSKNQVSLKLSSVTAADTAVYYCAKHYYYGGSYAMDYWGQGTLVTVSSTTTPAPRPPTPAPTIASQPLSLRPEACRPAAGGAVHTRGLDFACDIYIWAPLAGTCGVLLLSLVITLYCKRGRKKLLYIFKQPFMRPVQTTQEEDGCSCRFPEEEEGGCELRVKFSRSADAPAYQQGQNQLYNELNLGRREEYDVLDKRRGRDPEMGGKPRRKNPQEGLYNELQKDKMAEAYSEIGMKGERRRGKGHDGLYQGLSTATKDTYDALHMQALPPR
B6: 773 (protein)
chain: MALPVTALLLPLALLLHAARPRSSLAHKRSHTGERPFQCNQCGASFTQKGNLLRHIKLHTGEKPFKCHLCNTASAEARHIKAEMGGTGAEDPRPSRKRRSLGDVGEIVMTQSPATLSLSPGERATLSCRASQDISKYLNWYQQKPGQAPRLLIYHTSRLHSGIPARFSGSGSGTDYTLTISSLQPEDFAVYFCQQGNTLPYTFGQGTKLEIKGGGGSGGGGSGGGGSQVQLQESGPGLVKPSETLSLTCTVSGVSLPDYGVSWIRQPPGKGLEWIGVIWGSETTYYQSSLKSRVTISKDNSKNQVSLKLSSVTAADTAVYYCAKHYYYGGSYAMDYWGQGTLVTVSSTTTPAPRPPTPAPTIASQPLSLRPEACRPAAGGAVHTRGLDFACDIYIWAPLAGTCGVLLLSLVITLYCKRGRKKLLYIFKQPFMRPVQTTQEEDGCSCRFPEEEEGGCELRVKFSRSADAPAYQQGQNQLYNELNLGRREEYDVLDKRRGRDPEMGGKPRRKNPQEGLYNELQKDKMAEAYSEIGMKGERRRGKGHDGLYQGLSTATKDTYDALHMQALPPR
B7: construct 768: signal peptide, CAR19, a 16GS linker, the HilD tag, and a V5 (protein)
chain: MALPVTALLLPLALLLHAARPEIVMTQSPATLSLSPGERATLSCRASQDISKYLNWYQQKPGQAPRLLIYHTSRLHSGIPARFSGSGSGTDYTLTISSLQPEDFAVYFCQQGNTLPYTFGQGTKLEIKGGGGSGGGGSGGGGSQVQLQESGPGLVKPSETLSLTCTVSGVSLPDYGVSWIRQPPGKGLEWIGVIWGSETTYYQSSLKSRVTISKDNSKNQVSLKLSSVTAADTAVYYCAKHYYYGGSYAMDYWGQGTLVTVSSTTTPAPRPPTPAPTIASQPLSLRPEACRPAAGGAVHTRGLDFACDIYIWAPLAGTCGVLLLSLVITLYCKRGRKKLLYIFKQPFMRPVQTTQEEDGCSCRFPEEEEGGCELRVKFSRSADAPAYQQGQNQLYNELNLGRREEYDVLDKRRGRDPEMGGKPRRKNPQEGLYNELQKDKMAEAYSEIGMKGERRRGKGHDGLYQGLSTATKDTYDALHMQALPPRGGGGSGGGGTGGGGSGMHKRSHTGERPFQCNQCGASFTQKGNLLRHIKLHTGEKPFKCHLCNTASAEARHIKAEMGGKPIPNPLLGLDST
B8: 6761 (protein)
chain: MALPVTALLLPLALLLHAARPEIVMTQSPATLSLSPGERATLSCRASQDISKYLNWYQQKPGQAPRLLIYHTSRLHSGIPARFSGSGSGTDYTLTISSLQPEDFAVYFCQQGNTLPYTFGQGTKLEIKGGGGSGGGGSGGGGSQVQLQESGPGLVKPSETLSLTCTVSGVSLPDYGVSWIRQPPGKGLEWIGVIWGSETTYYQSSLKSRVTISKDNSKNQVSLKLSSVTAADTAVYYCAKHYYYGGSYAMDYWGQGTLVTVSSTTTPAPRPPTPAPTIASQPLSLRPEACRPAAGGAVHTRGLDFACDIYIWAPLAGTCGVLLLSLVITLYCKRGRKKLLYIFKQPFMRPVQTTQEEDGCSCRFPEEEEGGCELRVKFSRSADAPAYQQGQNQLYNELNLGRREEYDVLDKRRGRDPEMGGKPRRKNPQEGLYNELQKDKMAEAYSEIGMKGERRRGKGHDGLYQGLSTATKDTYDALHMQALPPRKGGGSKGGGTKGGGSKMHKRSHTGERPFQCNQCGASFTQKGNLLRHIKLHTGEKPFKCHLCNTASAEARHIKAEMGGKPIPNPLLGLDST

Test system: CAR19 fused to HilD tag and/or FurON
Assay: Flow cytometry of surface CAR expression on JNL cells, 10 μM lenalidomide and/or bazedoxifene 24 hours
Type: cell-based, human
Settings: for % reduction in CAR expression / Effect of lenalidomide: 10 μM lenalidomide, 24 hours; for CAR Expression: flow cytometry, FurON constructs only in presence of bazedoxifene; for effect of lenalidomide on surface CAR expression of the construct: 10 μM lenalidomide for 24 hours
[1] = surface CAR on transduced JNL cells

From the text: Next, the surface expression of CAR19 on stably transduced JNL cells was examined by flow cytometry. […] On Day 2, cells were harvested, stained using biotinylated-protein L (Genscript, M00097) followed by PE conjugated streptavidin (Jackson Lab, 016-110-084), and subjected to flow cytometry analysis using Fortessa instrument.

Row | Molecule | % reduction in CAR expression [1] | Effect of lenalidomide [1] | CAR Expression [1] | Effect of bazedoxifene (surface CAR on transduced JNL cells, with/without bazedoxifene) | effect of lenalidomide on surface CAR expression of the construct
1 | B1 | 87% | Yes | Yes | – | –
2 | B2 | – | No | Yes | Yes | –
3 | B3 | – | – | – | – | did not impact surface CAR expression
4 | B4 | 5% | No | Yes | – | –
5 | B5 | – | – | – | – | did not impact surface CAR expression
6 | B6 | 4% | No | Yes | – | –
7 | B7 | – | – | – | – | significantly reduced surface CAR expression
8 | B8 | 77% | Yes | Yes | – | –
